In US20230192896A1 (published 2023):
Substitutions are numbered along the chain they refer to. Blank lines part the entries; values can stand above or below the binder they belong to.

Target: T1, FX zymogen (UniProt P00742 41-179; P00742 183-488)
T1 chain 1: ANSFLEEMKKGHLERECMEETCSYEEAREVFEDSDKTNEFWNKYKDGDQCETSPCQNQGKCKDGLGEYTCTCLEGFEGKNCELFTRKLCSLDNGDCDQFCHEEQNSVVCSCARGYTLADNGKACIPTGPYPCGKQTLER
T1 chain 2: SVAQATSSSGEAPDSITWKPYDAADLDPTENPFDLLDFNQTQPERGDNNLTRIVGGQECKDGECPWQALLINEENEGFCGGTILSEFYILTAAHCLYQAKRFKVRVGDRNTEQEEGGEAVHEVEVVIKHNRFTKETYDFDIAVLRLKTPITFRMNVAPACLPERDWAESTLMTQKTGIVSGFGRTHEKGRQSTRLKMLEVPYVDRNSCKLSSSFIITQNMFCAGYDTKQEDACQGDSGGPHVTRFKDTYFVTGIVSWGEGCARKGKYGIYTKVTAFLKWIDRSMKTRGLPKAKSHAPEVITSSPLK
Experiment: BLI

Kd: 16 nM
B1: BIIB-12-1333 (antibody, V domains shown)
VH: QVQLVQSGAEVKKPGASVKVSCKASGYTFTSYYMVWVRQAPGQGLEWMGIINPSGGSTSYAQKFQGRVTMTRDTSTSTVYMELSSLRSEDTAVYYCARVSRRDYPLAFDIWGQGTMVTVSS
VL: EIVMTQSPATLSVSPGERATLSCRASQSVSSNLAWYQQKPGQAPRLLIYGASTRATGIPARFSGSGSGTEFTLTISSLQSEDFAVYYCQQVNTWPTFGGGTKVEIK

Kd: 23.7 nM
B2: BIIB-12-937 (antibody, V domains shown)
VH: QVQLVQSGAEVKKPGASVKVSCKASGYTFTSYYMHWVRQAPGQGLEWMGIINPSGGSTSYAQKFQGRVTMTRDTSTSTVYMELSSLRSEDTAVYYCARPTRMLRSYGMDVWGQGTTVTVSS
VL: not shown

Kd: 48 nM
B3: BIIB-12-1289 (antibody, V domains shown)
VH: QVQLVQSGAEVKKPGASVKVSCKASGYTFTSYYMHWVRQAPGQGLEWMGIINPGGGSTSYAQKFQGRVTMTRDTSTSTVYMELSSLRSEDTAVYYCARGPPRTYATGSHNWFDPWGQGTLVTVSS
VL: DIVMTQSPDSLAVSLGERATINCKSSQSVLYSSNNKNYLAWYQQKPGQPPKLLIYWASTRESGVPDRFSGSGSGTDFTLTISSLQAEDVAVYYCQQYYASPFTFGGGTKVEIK

Kd: 52.2 nM
B4: BIIB-12-893 (antibody, V domains shown)
VH: QVQLVQSGAEVKKPGASVKVSCKASGYTFTSYYMVWVRQAPGQGLEWMGIINPSGGSTSYAQKFQGRVTMTRDTSTSTVYMELSSLRSEDTAVYYCARDPGRRQYSFYGMDVWGQGTTVTVSS
VL: DIQLTQSPSSVSASVGDRVTITCRASQGISSWLAWYQQKPGKAPKLLIYAASSLQSGVPSRFSGSGSGTDFTLTISSLQPEDFATYYCQQAAAFPFTFGGGTKVEIK

Kd: 49.9 nM
B5: BIIB-12-1309 (antibody, V domains shown)
VH: QVQLVESGGGVVQPGRSLRLSCAASGFTFSSYGMHWVRQAPGKGLEWVAVISYDGSNKYYADSVKGRFTISRDNSKNTLYLQMNSLRAEDTAVYYCARGRYTSRYFQHWGQGTLVTVSS
VL: B4 VL with L4M, A92N, A93S, F94L, F96I

Kd: 10.4 nM
B6: BIIB-12-1314 (antibody, V domains shown)
VH: QVQLVESGGGVVQPGRSLRLSCAASGFTFSSYGMHWVRQAPGKGLEWVAVISYDGSNKYYADSVKGRFTISRDNSKNTLYLQMNSLRAEDTAVYYCAKGTRWAGNWGQGTLVTVSS
VL: B4 VL with L4M, A92N, A93F, F96I

Kd: 34 nM
B7: BIIB-12-908 (antibody, V domains shown)
VH: B6 VH with T100P, W102G, A103M, G104D, N105V, L111T
VL: B4 VL with A50G, A91G, A92S, A93S, F94L, F96I

Kd: 63.4 nM
B8: BIIB-12-896 (antibody, V domains shown)
VH: QVQLVQSGAEVKKPGASVKVSCKASGYTFTSYYMHWVRQAPGQGLEWMGIINPSGGSTSYAQKFQGRVTMTRDTSTSTVYMELSSLRSEDTAVYYCARGLGQQRRGFDIWGQGTLVTVSS
VL: B4 VL with L4M, A92N, A93S

Kd: 19.8 nM
B9: BIIB-12-1307 (antibody, V domains shown)
VH: QVQLQESGPGLVKPSETLSLTCAVSGYSISSGYYWAWIRQPPGKGLEWIGSIYHSGSTYYNPSLKSRVTISVDTSKNQFSLKLSSVTAADTAVYYCARGPLPRSRGLAFDIWGQGTMVTVSS
VL: B4 VL with V11L, G28S, W32F, A34N, A91T, A92Y, A93S, F94T, F96L

Kd: 18.5 nM
B10: BIIB-12-898 (antibody, V domains shown)
VH: QVQLVQSGAEVKKPGASVKVSCKASGYTFTSYYMHWVRQAPGQGLEWMGIINPSGGSTTYAQKFQGRVTMTRDTSTSTVYMELSSLRSEDTAVYYCARGDRMLRAFDPWGQGTLVTVSS
VL: B4 VL with S10T, V11L, G28A, A50D, Q55E, D70E, E81D, A91V, A92N, A93R

Kd: 23.1 nM
B11: BIIB-12-919 (antibody, V domains shown)
VH: QVQLVQSGAEVKKPGASVKVSCKASGYTFTSYYMHWVRQAPGQGLEWMGVINPSGGSTSYAQKFQGRVTMTRDTSTSTVYMELSSLRSEDTAVYYCARGANIAVGRRYADYWGQGTLVTVSS
VL: DIQMTQSPSTLSASVGDRVTITCRASQSISSWLAWYQQKPGKAPKLLIYKASSLESGVPSRFSGSGSGTEFTLTISSLQPDDFATYYCQQVSSYPTFGGGTKVEIK

Kd: 50.5 nM
B12: BIIB-12-1304 (antibody, V domains shown)
VH: QVQLVESGGGVVQPGRSLRLSCAASGFTFSSYGMHWVRQAPGKGLEWVAVISYDGSNKYYADSVKGRFTISRDNSKNTLYLQMNSLRAEDTAVYYCAKGPGSRRFDIWGQGTMVTVSS
VL: EIVMTQSPATLSVSPGERATLSCRASQSVSSNLAWYQQKPGQAPRLLIYGASTRATGIPARFSGSGSGTEFTLTISSLQSEDFAVYYCQQANVLPLTFGGGTKVEIK

Kd: 31.1 nM
B13: BIIB-12-912 (antibody, V domains shown)
VH: B12 VH with G99S, P100G, S102R, R103Y, R104G, F105Y
VL: B12 VL with A91F, N92H, V93N, L94F, L96P

Kd: 48.5 nM
B14: BIIB-12-1329 (antibody, V domains shown)
VH: B5 VH with R100G, Y101A, T102G
VL: B12 VL with L11K, G50S, A91V, N92F, V93N, L94W, L96P, E105K

Kd: 27.7 nM
B15: BIIB-12-918 (antibody, V domains shown)
VH: B12 VH with G99S, P100L, S102G, R104S
VL: DIQMTQSPSSLSASVGDRVTITCRASQSISRYLNWYQQKPGKAPKLLIYAASSLQSGVPSRFSGSGSGTDFTLTISSLQPEDFATYYCQQIFSLPITFGGGTKVEIK

Kd: 45 nM
B16: BIIB-12-1316 (antibody, V domains shown)
VH: B12 VH with G99S, P100G, G101Q, S102Y, R104A
VL: B4 VL with L4M, A91I, A92N, A93N, F96P

Kd: 64.1 nM
B17: BIIB-12-1302 (antibody, V domains shown)
VH: QVQLVQSGAEVKKPGASVKVSCKASGYTFTNYGISWVRQAPGQGLEWMGWISAYNGNTNYAQKLQGRVTMTTDTSTSTAYMELRSLRSDDTAVYYCARARSDWRAFDIWGQGTMVTVSS
VL: B12 VL with A91V, V93N

Kd: 38 nM
B18: BIIB-12-894 (antibody, V domains shown)
VH: QLQLQESGPGLVKPSETLSLTCTVSGGSISSSSYYWGWIRQPPGKGLEWIGSIYYSGSTYYNPSLKSRVTISVDTSKNQFSLKLSSVTAADTAVYYCAREGAHSSMAGLDVWGQGTMVTVSS
VL: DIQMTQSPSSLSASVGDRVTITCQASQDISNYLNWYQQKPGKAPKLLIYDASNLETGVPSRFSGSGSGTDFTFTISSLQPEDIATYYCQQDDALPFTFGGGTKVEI

Kd: 52 nM
B19: BIIB-12-907 (antibody, V domains shown)
VH: QVQLQESGPGLVKPSETLSLTCAVSGYSISSGYYWAWIRQPPGKGLEWIGSIYHSGSTYYNPSLKSRVTISVDTSKNQFSLKLSSVTAADTAVYYCARESGMSGAAYWGQGTLVTVSS
VL: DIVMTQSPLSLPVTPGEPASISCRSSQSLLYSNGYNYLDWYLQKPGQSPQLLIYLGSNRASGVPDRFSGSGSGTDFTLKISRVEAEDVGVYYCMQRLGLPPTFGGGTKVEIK

Kd: 38.6 nM
B20: BIIB-12-922 (antibody, V domains shown)
VH: QVQLVQSGAEVKKPGASVKVSCKASGYTFTSYYMHWVRQAPGQGLEWMGIINPSGGSTSYAQKFQGRVTMTRDTSTSTVYMELSSLRSEDTAVYYCARRGRIAGMWGQGTTVTVSS
VL: not shown

Kd: 56 nM
B21: BIIB-12-930 (antibody, V domains shown)
VH: B8 VH with G99V, L100R, G101Q, Q102K, Q103A, R104T, R105L, G106L, D108Q, I109H
VL: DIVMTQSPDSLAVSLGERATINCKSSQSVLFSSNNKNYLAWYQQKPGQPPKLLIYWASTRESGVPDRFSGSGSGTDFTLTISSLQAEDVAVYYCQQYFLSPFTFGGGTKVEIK

Kd: 48.4 nM
B22: BIIB-12-905 (antibody, V domains shown)
VH: B6 VH with T100G, R101T, W102Y, A103L, G104D, N105T
VL: EIVLTQSPGTLSLSPGERATLSCRASQSVRSSYLAWYQQKPGQAPRLLIYGASSRATGIPDRFSGSGSGTDFTLTISRLEPEDFAVYYCQQYGRFPPTFGGGTKVEIK

Kd: 24.1 nM
B23: BIIB-12-1326 (antibody, V domains shown)
VH: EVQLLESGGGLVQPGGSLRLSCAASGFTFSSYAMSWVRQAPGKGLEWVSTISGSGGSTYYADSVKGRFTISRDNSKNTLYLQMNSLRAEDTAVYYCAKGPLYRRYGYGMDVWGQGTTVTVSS
VL: B22 VL with Y92A, G93Y, R94S, F95S, P97L

Kd: 39.6 nM
B24: BIIB-12-906 (antibody, V domains shown)
VH: B6 VH with G99S, T100S, W102H, A103F, G104D, N105Y, Q108R
VL: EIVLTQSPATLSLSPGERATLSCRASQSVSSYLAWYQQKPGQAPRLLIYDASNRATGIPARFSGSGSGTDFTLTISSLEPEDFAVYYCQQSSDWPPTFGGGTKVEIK

Kd: 68 nM
B25: BIIB-12-897 (antibody, V domains shown)
VH: B18 VH with A102R, H103T, S104Y, S105Y, M106G, A107G, G108W, L109F, V111P, M117L
VL: B22 VL with R30S, Y92D, R94N, F95Y, P97Y
